For this test, the target named is Pyrococcus abyssi PAB1135 protein (trypsin-treated) (Pyrococcus abyssi) (UniProt Q9UXX8). The test can be described thus: SEC; trypsin-treated PAB1135 on Superdex 75 XK 16/60; 50 mM Tris-HCl pH 8.0, 150 mM NaCl, 0.5 mM EDTA; apparent mass against mass markers.

Our source for the stoichiometry N values is article PMC2872656.

With “Pyrococcus abyssi PAB1135 protein (trypsin-treated) (from UniProt Q9UXX8 1-154) (natural protein)”, the stoichiometry N (as a rule, the number of molecules, sites or subunits per partner or assembly) amounted to 2.
